Reference: the supplement of paper PMC10724198
± gives the standard deviation of the averaged measurements.

Tests used:
Saccharomyces cerevisiae [1] = experiment: protein stability index of tFT-peptide fusion (C-terminal peptide) (PSI (0-1 scale)); higher = more stable (slower turnover)
Protocol: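 MPS profiling in S. cerevisiae of the tFT-X12 degron library: putative degron peptides plus stable controls, 12 aa, fused to the C-terminus of a sfGFP-mCherry timer. Cells are FACS-sorted into 8 mCherry/sfGFP bins and deep-sequenced. PSI runs from 0 (unstable) to 1 (stable). Backgrounds are wild type, das1Δ and doa10Δ at 30 °C, and wild type, das1Δ, cdc34-1 and cdc53-1 at 37 °C; 2-3 technical replicates each.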

Saccharomyces cerevisiae [2] = experiment: as above; conditions: genetic background: wild type; temperature: 30 C
[3] = genetic background: cdc34-1, temperature: 37 C
[4] = genetic background: cdc53-1, temperature: 37 C
[5] = genetic background: das1 deletion, temperature: 30 C
[6] = genetic background: das1 deletion, temperature: 37 C
[7] = genetic background: doa10 deletion, temperature: 30 C
[8] = genetic background: wild type, temperature: 30 C
[9] = genetic background: wild type, temperature: 37 C
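Note: PSI is a weighted mean of sequencing reads over stability bins, variants kept only with over 10 reads, mCherry proximal and sfGFP distal, peptide attached via GGGS linker.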

| Sequence | protein stability index (Saccharomyces cerevisiae [1]; [3]) | protein stability index (Saccharomyces cerevisiae [1]; [4]) | protein stability index (Saccharomyces cerevisiae [1]; [5]) | protein stability index (Saccharomyces cerevisiae [1]; [6]) | protein stability index (Saccharomyces cerevisiae [1]; [7]) | protein stability index (Saccharomyces cerevisiae [1]; [8]) | protein stability index (Saccharomyces cerevisiae [1]; [9]) | protein stability index (Saccharomyces cerevisiae [2]) |
| --- | --- | --- | --- | --- | --- | --- | --- | --- |
| RGPSQVIVAFFV | 0.663 ± 0.027 | 0.6843 ± 0.0038 | 0.522 ± 0.026 | 0.688 ± 0.0083 | 0.3186 ± 0.0031 | 0.371 ± 0.026 | 0.5674 ± 0.0018 | 0.49 ± 0.016 |
| RGSLLRWFLAAQ | 0.628 ± 0.031 | 0.707 ± 0.012 | 0.654 ± 0.034 | 0.706 ± 0.022 | 0.289 ± 0.0095 | 0.31 ± 0.029 | 0.541 ± 0.019 | 0.443 ± 0.014 |
| RGSRLVPRLLRP | 0.686 ± 0.028 | 0.705 ± 0.012 | 0.648 ± 0.015 | 0.713 ± 0.0012 | 0.64 ± 0.02 | 0.656 ± 0.03 | 0.677 ± 0.0057 | 0.71 ± 0.024 |
| RGWWWFVVVLCR | 0.165 ± 0.0082 | 0.139 ± 0.0061 | 0.216 ± 0.033 | 0.316 ± 0.0084 | 0.2215 ± 0.00025 | 0.197 ± 0.012 | 0.2951 ± 0.0014 | 0.329 ± 0.028 |
| RHIRGLNLIKLI | 0.316 ± 0.092 | 0.672 ± 0.034 | 0.652 ± 0.025 | 0.69 ± 0.034 | 0.0672 ± 0.022 | 0.0745 ± 0.011 | 0.0777 ± 0.0067 | 0.161 ± 0.044 |
| RHQTDIVTATQK | 0.694 ± 0.05 | 0.724 ± 0.026 | 0.636 ± 0.036 | 0.717 ± 0.012 | 0.642 ± 0.062 | 0.685 ± 0.014 | 0.70375 ± 0.00022 | 0.562 ± 0.097 |
| RHVFLRIKVLNL | 0.564 ± 0.11 | 0.644 ± 0.051 | 0.52 ± 0.016 | 0.5596 ± 0.0049 | 0.344 ± 0.0053 | 0.397 ± 0.015 | 0.5197 ± 0.0025 | 0.489 ± 0.085 |
| RIFRCYSFYVVV | 0.496 ± 0.047 | 0.587 ± 0.029 | 0.393 ± 0.026 | 0.568 ± 0.024 | 0.272 ± 0.029 | 0.267 ± 0.031 | 0.4233 ± 0.0012 | 0.336 ± 0.021 |
| RILFSPSTFYLF | 0.665 ± 0.048 | 0.761 ± 0.037 | 0.705 ± 0.03 | 0.7501 ± 0.0036 | 0.214 ± 0.024 | 0.265 ± 0.031 | 0.487 ± 0.024 | 0.397 ± 0.026 |
| RIRRVMHLYTNN | 0.475 ± 0.027 | 0.705 ± 0.071 | 0.641 ± 0.027 | 0.708 ± 0.024 | 0.0717 ± 0.0049 | 0.0844 ± 0.012 | 0.109 ± 0.044 | 0.121 ± 0.0048 |
| RISYKTKINELI | 0.653 ± 0.038 | 0.735 ± 0.034 | 0.607 ± 0.034 | 0.737 ± 0.01 | 0.262 ± 0.0063 | 0.287 ± 0.052 | 0.5426 ± 0.003 | 0.434 ± 0.043 |
| RIVLRPPFNSVA | 0.619 ± 0.015 | 0.727 ± 0.017 | 0.656 ± 0.035 | 0.7428 ± 0.0017 | 0.176 ± 0.0064 | 0.217 ± 0.018 | 0.48 ± 0.0059 | 0.367 ± 0.077 |
| RKKKRNKKKMIM | 0.716 ± 0.058 | 0.734 ± 0.019 | 0.629 ± 0.019 | 0.706 ± 0.022 | 0.362 ± 0.024 | 0.342 ± 0.09 | 0.621 ± 0.0081 | 0.522 ± 0.044 |
| RLDAPGLSRTEN | 0.66 ± 0.04 | 0.68 ± 0.011 | 0.647 ± 0.044 | 0.683 ± 0.0075 | 0.66 ± 0.026 | 0.646 ± 0.078 | 0.671 ± 0.017 | 0.513 ± 0.12 |
| RLFYRLSFVYFL | 0.398 ± 0.025 | 0.4469 ± 0.0038 | 0.378 ± 0.029 | 0.514 ± 0.017 | 0.169 ± 0.0068 | 0.175 ± 0.016 | 0.243 ± 0.015 | 0.2655 ± 0.0014 |
| RLLLLLTCIIYI | 0.173 ± 0.006 | 0.219 ± 0.023 | 0.194 ± 0.016 | 0.276 ± 0.052 | 0.183 ± 0.026 | 0.16 ± 0.046 | 0.267 ± 0.032 | 0.256 ± 0.015 |
| RLPVMFWFVCSF | 0.561 ± 0.053 | 0.641 ± 0.024 | 0.477 ± 0.026 | 0.6288 ± 0.0029 | 0.47 ± 0.038 | 0.466 ± 0.026 | 0.638 ± 0.055 | 0.506 ± 0.042 |

| Sequence | protein stability index (Saccharomyces cerevisiae [1]; [3]) | protein stability index (Saccharomyces cerevisiae [1]; [4]) | protein stability index (Saccharomyces cerevisiae [1]; [5]) | protein stability index (Saccharomyces cerevisiae [1]; [6]) | protein stability index (Saccharomyces cerevisiae [1]; [7]) | protein stability index (Saccharomyces cerevisiae [1]; [8]) | protein stability index (Saccharomyces cerevisiae [1]; [9]) | protein stability index (Saccharomyces cerevisiae [2]) |
| --- | --- | --- | --- | --- | --- | --- | --- | --- |
| RLVRILSTILLN | 0.487 ± 0.079 | 0.638 ± 0.038 | 0.576 ± 0.028 | 0.703 ± 0.052 | 0.0769 ± 0.029 | 0.1 ± 0.014 | 0.0569 ± 0.034 | 0.177 ± 0.049 |
| RLVVSRNFYRLC | 0.622 ± 0.054 | 0.723 ± 0.017 | 0.6318 ± 0.006 | 0.7235 ± 0.0012 | 0.125 ± 0.0022 | 0.135 ± 0.014 | 0.342 ± 0.0091 | 0.304 ± 0.1 |
| RLWLPLSLVLWV | 0.376 ± 0.05 | 0.3824 ± 0.0031 | 0.37 ± 0.072 | 0.505 ± 0.012 | 0.414 ± 0.03 | 0.341 ± 0.05 | 0.421 ± 0.041 | 0.427 ± 0.029 |
| RMCEILGIRHLI | 0.611 ± 0.031 | 0.742 ± 0.016 | 0.645 ± 0.025 | 0.748 ± 0.017 | 0.137 ± 0.013 | 0.158 ± 0.01 | 0.303 ± 0.016 | 0.245 ± 0.061 |
| RMCPWVSVRVGV | 0.558 ± 0.028 | 0.5891 ± 0.0027 | 0.382 ± 0.036 | 0.5922 ± 0.0023 | 0.3537 ± 0.0019 | 0.391 ± 0.013 | 0.5825 ± 0.00065 | 0.485 ± 0.0071 |
| RPRRARLPNFLA | 0.37 ± 0.0066 | 0.64023 ± 0.0001 | 0.653 ± 0.022 | 0.705 ± 0.018 | 0.0688 ± 0.021 | 0.073 ± 0.0067 | 0.0894 ± 0.0014 | 0.0979 ± 0.012 |
| RPRVAGLMTLVS | 0.698 ± 0.013 | 0.686 ± 0.052 | 0.543 ± 0.018 | 0.707 ± 0.025 | 0.459 ± 0.03 | 0.459 ± 0.032 | 0.672 ± 0.0094 | 0.5 ± 0.0055 |
| RRSRLYKKAGLM | 0.609 ± 0.011 | 0.7374 ± 0.0017 | 0.643 ± 0.02 | 0.745 ± 0.011 | 0.179 ± 0.001 | 0.181 ± 0.037 | 0.296 ± 0.0014 | 0.301 ± 0.064 |
| RSIVFRVSRRLN | 0.65 ± 0.074 | 0.729 ± 0.019 | 0.671 ± 0.023 | 0.726 ± 0.015 | 0.13 ± 0.0084 | 0.161 ± 0.025 | 0.343 ± 0.044 | 0.277 ± 0.034 |
| RTKIKKKIMKNI | 0.621 ± 0.051 | 0.718 ± 0.032 | 0.667 ± 0.023 | 0.716 ± 0.029 | 0.473 ± 0.052 | 0.532 ± 0.016 | 0.651 ± 0.037 | 0.515 ± 0.062 |
| RVCCLSFFFVFL | 0.445 ± 0.022 | 0.581 ± 0.054 | 0.398 ± 0.036 | 0.581 ± 0.014 | 0.427 ± 0.0094 | 0.391 ± 0.0052 | 0.551 ± 0.027 | 0.517 ± 0.024 |
| RVCYQIAISLPI | 0.546 ± 0.0067 | 0.571 ± 0.027 | 0.438 ± 0.012 | 0.552 ± 0.013 | 0.428 ± 0.022 | 0.432 ± 0.02 | 0.542 ± 0.03 | 0.495 ± 0.016 |
| RVDVSVLWNRRS | 0.655 ± 0.045 | 0.75995 ± 0.0007 | 0.669 ± 0.0086 | 0.744 ± 0.028 | 0.284 ± 0.026 | 0.312 ± 0.038 | 0.511 ± 0.013 | 0.4857 ± 0.0047 |
| RVEPYDLARRVL | 0.725 ± 0.038 | 0.768 ± 0.028 | 0.665 ± 0.027 | 0.759 ± 0.02 | 0.652 ± 0.025 | 0.628 ± 0.015 | 0.71 ± 0.018 | 0.726 ± 0.0081 |
| RVITRMLLMVIR | 0.318 ± 0.056 | 0.365 ± 0.031 | 0.353 ± 0.029 | 0.512 ± 0.019 | 0.493 ± 0.0081 | 0.359 ± 0.011 | 0.47449 ± 0.00047 | 0.43 ± 0.036 |
| RVPCCLSFVPVC | 0.508 ± 0.032 | 0.5131 ± 0.004 | 0.394 ± 0.026 | 0.5682 ± 0.0047 | 0.363 ± 0.0097 | 0.405 ± 0.027 | 0.5362 ± 0.0037 | 0.452 ± 0.033 |
